Assay results reported in the nanobody polyreactivity screen of Harvey et al. (2022).

test: yeast display, Sf9 membrane polyspecificity reagent, FACS + sequencing; frameworks hold sequencing errors
Summary of the method: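 After 36–48 hours of galactose induction, yeast (Saccharomyces cerevisiae BJ5465) displaying a synthetic nanobody library were stained at 4 °C for 1 hour with 10% biotinylated, detergent-solubilized Sf9 membrane reagent. Streptavidin microbeads enriched the stained cells before FACS sorting into low and high (top ~1%) gates on anti-HA and streptavidin fluorescence. Each clone's polyreactivity label reflects its gate of origin.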

Row | Sequence | polyreactivity (PSR sort gate)
1 | QVQLVESGGGLVQAGGSLRLSCAASGLIFPSYARGWYRQAPGKERELVAGINSGGSTNYADSVKGRFTISRDNAKNTVYLQMNSLKPEDTAVYYCAKDNNYYWYVSPRDYWGQGTQVTVSS | low polyreactivity
2 | QVQLVESGGGLVQAGGSLRLSCAASGLIFPYYAMGWYREAPGKARELVASIRYSAGNTYYADSVKGRFTISRDNAKNTVYLQMNSLKPEDTAVYYCWYTQNTLGNYWGQGTQVTVSS | low polyreactivity
3 | QVQLVESGGGLVQAGGSLRLSCAASGLIFPYYTMGWYRQAPGKEGELVAVINRGGSTSYADSVKGRFTISRDNEKISVYLQMNSLKPEYTAVYYCARRTPYYTSYAFDSWGQGTQVTVSS | high polyreactivity
4 | QVQLVESGGGLVQAGGSLRLSCAASGLIFQGYAMGWYRQAPGKEREFVAVITWSGGSTYYADSVKGRFTISRDNAKNTVYLQMNSLKPEDTAVYYCADDDVWYDFDYWGQGTQVTVSS | low polyreactivity
5 | QVQLVESGGGLVQAGGSLRLSCAASGLIFQVYDMGWYRQAPGKERELVAATSSGSKTNYADSVKGRFTISRDNAKNTVYLQMNSLKPEDTAVYYCAAGGPSTLDDYWGQGTQVTVSS | low polyreactivity
6 | QVQLVESGGGLVQAGGSLRLSCAASGLIFRFYAMGWYRQAPGKERELVAAISGGGGSTYYADSVKGRFTISRDNAKNTVYFQMNSLKPEDTAVYYCNTVNDKRAYGKMGYWGQGTQVTVSS | high polyreactivity
7 | QVQLVESGGGLVQAGGSLRLSCAASGLIFRGYAMGWYRQAPGKERELVAAISKSGGSTYYADSVKGRFTISRDNAKNTVYLQMNSLKPEDTAVYYCNARKHGSRTGGYYWGQGTQVTVSS | high polyreactivity
8 | QVQLVESGGGLVQAGGSLRLSCAASGLIFRHYAMGWYRQAPGKERELVAAINWDGTSTDYADSVKGRFTISRDNAKNTVYLQMNSLKPEDTAVYYCAAEGHTAFVVYRVSPLQYDYWGHGTQVTVSS | low polyreactivity
9 | QVQLVESGGGLVQAGGSLRLSCAASGLIFRIYAMGWYRQAPGKETELVAAISNSGGYTYYADSVKGRFTISRDNAKNTVYLQMNSLKPEDTAVYYCAAELRLWPWRRFDYWGQGTQVTVSS | high polyreactivity
10 | QVQLVESGGGLVQAGGSLRLSCAASGLIFRKNAMGWYRQAPGKEMELVAAISSSDSSTYADSVKGRCTISRDNAKNTVYLQMNSLKPEDTAVYYCAAASYNWLDWVTREYWGQGTQVTVSS | low polyreactivity
11 | QVQLVESGGGLVQAGGSLRLSCAASGLIFRPYAIGWYRQAPGKERELVAGITSGGNTDYADSVKGRFTISRDNAKNTVYLQMNSLKPEDTAVYYCADYFIYGYWGQGTQVTVSS | low polyreactivity
12 | QVQLVESGGGLVQAGGSLRLSCAASGLIFRPYAMGWYRQAPGKERELFAGISFRGDSTYYADSVKGRFTISRDNAKNTVYLQMNCLKPEDTAVYYCDADVYIYWPPDKLLGYDYWGQGSQVTVSS | low polyreactivity
13 | QVQLVESGGGLVQAGGSLRLSCAASGLIFRRYAMGRNRQAHGKERELVAAISRSGGSTYYADSVKGRFTISRDNEKNTVYLQMNSLKPEDTAVYYCAADYAPVFWGDYKYDYWGQGTQVTVSS | high polyreactivity
14 | QVQLVESGGGLVQAGGSLRLSCAASGLIFRVYAMGWYRQAPGKERELVAAISISDGTTNYADSVKGRFTISRDNAKNTVYLQMNSLKPEDTAVYYCAADYDFYDFSYQSWSEENYWGQGTQVTVSS | low polyreactivity
15 | QVQLVESGGGLVQAGGSLRLSCAASGLIFRVYTMGWYRQAPGKERELVSAITGRGGRTYYADSVKGRFTISRDNAKNTVYLQMNSLKPEDTAVYYCATGGRYQQAAYTGYNYWGQGTQVTVSS | high polyreactivity
16 | QVQLVESGGGLVQAGGSLRLSCAASGLIFRWYAMAWYRQAPGKERELVAAISRRGGTTNYADSVKGRFTISRDNAKNTVYLQMNTLKPEDTAVYYCAADYQSVGGAEYDYWGQGTQVTVSS | high polyreactivity
17 | QVQLVESGGGLVQAGGSLRLSCAASGLIFRYNTMGWYRQAPGKERELVAAITSSGVRTYYADSVKGRFTISRDNAKNTVYLQMNSLKPEDTAVYYCAAEGKSYPWPWYFDYWGQGTQVTVSS | high polyreactivity
18 | QVQLVESGGGLVQAGGSLRLSCAASGLIFRYYDMGWYRQAPGKERELVAAISSSGTRTYYADSVKGRFTISRENPKNTVYLQMNSLKPEDTSVYYCATENQNPTGGYWGQGTQVTVSS | high polyreactivity
19 | QVQLVESGGGLVQAGGSLRLSCAASGLIFSPYAMGWYRQAPGKVREFVAAITSRGGTYYADSVKGRFTISRDNAKNTVYLQMNSLKPEDTAVYYCAARNNRYPLYNYWGQGTQVTVSS | low polyreactivity
20 | QVQLVESGGGLVQAGGSLRLSCAASGLIFSRYTMGWNRQAPGKERELVAAISRSGTNTYYADSVKGRFTISRDNAKNTVYLQMNSLKPEDTAVYYCAARGYYRDYDSWGQGTQVTVSS | high polyreactivity
21 | QVQLVESGGGLVQAGGSLRLSCAASGLIFSRYTMGWYRQAPGKERELVAAISLGGGRTYYADSVKGRFTISRDNAKNTVYLQMNSLKPEDTAVYYCAATRYYSSDYWGQGTQVTVSS | low polyreactivity
22 | QVQLVESGGGLVQAGGSLRLSCAASGLIFSSYAMGWYRQAPGKERELVAAISGSGGSTYYADSEKGRFTISRDNAKNTVYLQMNSLKPEDTAVYYCAAELDDYWVVSEDSSGQGTQVTVSS | low polyreactivity

Row | Sequence | polyreactivity (PSR sort gate)
23 | QVQLVESGGGLVQAGGSLRLSCAASGLIFSSYAMGWYRQAPGKERELVAAITGSGGRTYYADSVKGRFTISRDNAKNTVYLQMNSLKPEDTAVYYCAAKYPDPRYYTGYDYWGQGTQVTVSS | high polyreactivity
24 | QVQLVESGGGLVQAGGSLRLSCAASGLIFSTNDMGWYRQAPGKERELVAAITSDVSTYYADSVKGRFTISRDNAKNTVYLQMNSLKPEDTAVYYCAKDDSGYINWRYDYWGQGTQVTVSS | low polyreactivity
25 | QVQLVESGGGLVQAGGSLRLSCAASGLIFSTYAMGWYRQAPGKERELVAAINSGGGNTYYADSVKGRFTISRDNAKNTVYLQMNSLKPEDTAVYYCNAQWRRHPGIWHYGYWGQGTQVTVSS | low polyreactivity
26 | QVQLVESGGGLVQAGGSLRLSCAASGLIFSWNAMGWYRQAPGKERELVASISYSGGRTYYADSVKGRFTISRDNAKNTVYLQMNSLKPEDTAVYYCAADTNATTDPEMDYWGQGTQVTVSS | low polyreactivity
27 | QVQLVESGGGLVQAGGSLRLSCAASGLIFSWYDMGWYRQAPGKERELVDAITTDGDDTYYADSVKGRFTISRDNAKNTVYLQMKSLKPEDTAVYYCDAVSEVAIRYPDRDYDSWGQGTQVTVSS | low polyreactivity
28 | QVQLVESGGGLVQAGGSLRLSCAASGLIFSYNAMGWYRQAPGKERELVATISYSGGTTYYADSVKGRFTISRDNAKNTVYLQMNSLKPEDTAVYYCAARTLYSPGRPWKWYNYGRYGYWGQGTQVTVSS | high polyreactivity
29 | QVQLVESGGGLVQAGGSLRLSCAASGLIFSYYAMGWYRQAPGKERELVAAITGSGGSTYYADSVKGRFTISRDNAKNTVYLQMNSLKPEDTAVYYCAAGRYAYTLSRKYDYWGQGTQVTVSS | high polyreactivity
30 | QVQLVESGGGLVQAGGSLRLSCAASGLIFSYYAMGWYRQAPGKETELVAGITRSGASTYADSVKGRFTISRDNAKNTVYLQMNSLKPEDTAVYYCAADWHYLGWFWQYSKYDYWGQGTQVTVSS | high polyreactivity
31 | QVQLVESGGGLVQAGGSLRLSCAASGLIFSYYTMGWYRQAPGKERELVAAISSSAGSTYYADSVKGRCTISRDNAKNTVYCQMNSLKPEDTAVYYCNVRTLVQHHSSYSSRYESWGQGTHVTVSS | high polyreactivity
32 | QVQLVESGGGLVQAGGSLRLSCAASGLIFTDYVMGWYRQAPGKEREFVAAITGSAGRTYYADSVKGRFTISRDNAKNTVYLQMNSLKPEDTAVYYCNADYWWWHEYDYWGQGTQVTVSS | high polyreactivity
33 | QVQLVESGGGLVQAGGSLRLSCAASGLIFTSNTMGWYRQAPGKERELVAAISRRGGNTYYADSVKGRFTISRDNAKNTVYLQMNSLKPEDTAVYYCAAVAYALGFASKEDYWGQGTQVTVSS | high polyreactivity
34 | QVQLVESGGGLVQAGGSLRLSCAASGLIFTSYAMGWYRHAPGKERELVAAISTSGGRTYYADSVKGRFTISRDNAKNTVYVQMNSLKAEDTAVYYCYANWRYPYDYWGQGTQVTVSS | high polyreactivity
35 | QVQLVESGGGLVQAGGSLRLSCAASGLIFTSYAMGWYRQAPGKERELVAAISTGGGRTYYADSVKGRFTISRDNAKNTVYLQMNSLKPEDTAVYYCAADSVTYGYDYWGQGTQVTVSS | high polyreactivity
36 | QVQLVESGGGLVQAGGSLRLSCAASGLIFTSYAMGWYRQAPGKERELVAAISYSGGTTFYADSVKGRFTISRDNAKNTVYLQMNSLKPEDTAVYYCAADSLSTTHDTLGYDRDDYWGQGTQVTVSS | low polyreactivity
37 | QVQLVESGGGLVQAGGSLRLSCAASGLIFTTYAMGWYRQAPGKERELVAAISSSGDSTYYADSVKGRFTISRDNAKNTVYLQMNSLKPEDTAVYYCAARYYYRGYEFGYWGQGTQVTVSS | high polyreactivity
38 | QVQLVESGGGLVQAGGSLRLSCAASGLIFTYYAMGWYRQAPGKERELVAAITSGGTTNYADSVKGRFTISRDNAKNTVYLQMNSLKPEDTAVYYCAADYDTGSERYEYWGQGTQVTVSS | low polyreactivity
39 | QVQLVESGGGLVQAGGSLRLSCAASGLIFVDNAMGWYRQAPGKERELVAAIDSGGRTYYADSVKGRFTISRDNAKNTVYLQMNSLKPEDTAVYYCAAPWRLFCLYDYWGQGTQVSVSS | low polyreactivity
40 | QVQLVESGGGLVQAGGSLRLSCAASGLIFVNDMGLYRQAPGKEREFVAAITYSTGSTYYADSVKGRFTISRDNAKNTVYLQMNSLKPEDTAVYYCAKDRSGHGTERDYWGQGTQVTVSS | low polyreactivity
41 | QVQLVESGGGLVQAGGSLRLSCAASGLIFVPYAMGWYRQAPGKERELVAAINSGATTYYADSVKGRFTISRDNAKNTVYLQMNSLKPEDTAVYYCAARSRFTESSRYYYWGQGTQVTVSS | high polyreactivity
42 | QVQLVESGGGLVQAGGSLRLSCAASGLIFVRYAMGWYRQAPGKERELVAAITTGGRTYYADSVKGRFTISRDNAKNTVYLQMNSLKPEDTAVYYCAAQSFYGIYYGQQDYDYWGQGTQVTVSS | high polyreactivity
43 | QVQLVESGGGLVQAGGSLRLSCAASGLIFVVYAMGWYRPAPGKERELVADISSGGRTSYADSVKGRFTISRDNAKNTVYLQMNSLKPEDTAVYYCNAYPVFNQYYGWRYDYWGQGTQVTVSS | low polyreactivity
